This experiment concerns the target T1, GST-TOPBP1(BRCT0-2 1-290) WT (human, UniProt Q92547 1-290).
T1 construct: TOPBP1, human, residues 1-290 (BRCT0-2); expressed from pGEX-6P-1, eluted with glutathione, no cleavage described; also called TOPBP1 BRCT0-1-2; TOPBP1 BRCT 0-1-2 WT; source: E. coli BL21(DE3), purified (HiTrap GST, Superdex 200)
As to the kind of experiment: fluorescence polarisation; 100 nM fluorescein-labelled SLX4 peptide, increasing concentrations of TOPBP1 BRCT fragment; room temperature; 25 mM HEPES pH 7.5, 150 mM NaCl, 1 mM EDTA, 0.25 mM TCEP, 0.002% Tween 20; single site with non-specific component. The note with it: both partners purified.

Square brackets hold non-standard residues; d marks the D form. Ends that are not written are not given here. fluorescein = fluorescein label on the N-terminus; pT = C[C@@H](OP(=O)(O)O)[C@H](N)C(=O)O

B1: Flu-SLX4_pT1260 (peptide)
peptide: fluorescein-GYGTSWLVPA[pT]PLASRSR
modifications: also: phosphothreonine at Thr1260 (position 4 or 11)
notes: residues before the SLX4 stretch, not SLX4; SLX4, human, amino acids 1253-1267, pT1260; also called fluorescein tagged SLX4 pT1260-containing peptide; pThr1260 SLX4 peptide; source: synthetic peptide
In the case of B1, the binding result is reported as “binds”.

Source of the values: article PMC12661054, “The CIP2A-TOPBP1 axis facilitates mitotic DNA repair via MiDAS and MMEJ” (Nature Communications, 2025).
